What all share (assay): hydrolysis kinetics, product by liquid chromatography
Holding throughout (assay type): biochemical, Synechocystis sp. PCC 6803

For one data set, the system named is N#CCc1cccc(Cl)c1. An excerpt: (§1) hydrolysis kinetics, product by liquid chromatography on nitrilase (WT)
A further data set has as its system N#CCc1ccccc1Cl.
Description: as §1

A further data set relates to N#CCc1ccc(Cl)cc1.
Description: as §1

By Km is commonly meant the substrate concentration at which the rate is half of its maximum. The kcat is the maximal rate divided by the concentration of active sites. The term kcat/Km denotes the turnover number divided by the Michaelis constant.

Turning to “nitrilase (WT) (Synechocystis sp. PCC 6803 substr. Kazusa)”, in the data set on N#CCc1cccc(Cl)c1, the Km was 460 ± 40 µM, the kcat was found to be 0.27 ± 0.02 s⁻¹ and the kcat/Km was 590 M⁻¹ s⁻¹.
In the case of “nitrilase (WT) (Synechocystis sp. PCC 6803 substr. Kazusa; H141W)”, in the data set on N#CCc1ccccc1Cl, the Km was 650 ± 180 µM, the kcat was 0.21 ± 0.05 s⁻¹ and the kcat/Km came to 330 M⁻¹ s⁻¹.
In the case of “nitrilase (WT) (Synechocystis sp. PCC 6803 substr. Kazusa; T54Y)”, in the data set on N#CCc1ccc(Cl)cc1, the Km was 710 ± 30 µM, the kcat was 0.56 ± 0.07 s⁻¹ and the kcat/Km was found to be 560 M⁻¹ s⁻¹. For the same substance, in the data set with N#CCc1cccc(Cl)c1, the Km is 9600 ± 270 µM, the kcat came out at 0.08 ± 0.13 s⁻¹ and the kcat/Km is 10 M⁻¹ s⁻¹.

The record behind these values is article PMC5052520, “The Important Role of Halogen Bond in Substrate Selectivity of Enzymatic Catalysis” (Scientific Reports, 2016).
